# From article PMC3493575, “Elongation Factor 1 alpha1 and Genes Associated with Usher Syndromes Are Downstream Targets of GBX2”
# Experiments:
# [1] = target: GBX2 full-length (mouse, UniProt P48031 1-348); assay: EMSA; supershift with anti-GBX2; 940 pM probe, 720 nM GBX2; 2X binding buffer: 20 mM Tris-HCl pH 7.4, 50 mM KCl, 1 mM DTT, 10% glycerol, 200 ug/mL BSA, 2.2 ug/mL poly dI/dC; 30 min, 25 C; 6% native PAGE, Tris-glycine; conditions: protein: recombinant; tags: V5-6xHis (pET101/D-TOPO); label: 32P end label; blunt
# GBX2 full-length, sequence (P48031 whole entry): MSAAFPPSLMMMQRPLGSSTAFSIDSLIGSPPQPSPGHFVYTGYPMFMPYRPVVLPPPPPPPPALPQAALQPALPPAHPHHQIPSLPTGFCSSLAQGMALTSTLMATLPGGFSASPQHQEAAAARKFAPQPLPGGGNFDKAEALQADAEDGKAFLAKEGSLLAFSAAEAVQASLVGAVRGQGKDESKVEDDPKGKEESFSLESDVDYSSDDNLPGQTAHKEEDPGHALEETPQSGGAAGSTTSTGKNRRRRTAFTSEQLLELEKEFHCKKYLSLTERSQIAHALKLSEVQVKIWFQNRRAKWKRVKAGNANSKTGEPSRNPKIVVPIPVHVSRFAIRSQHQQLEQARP
# [2] = target: GBX2ΔHD (mouse, UniProt P48031 1-94); assay: EMSA; 940 pM probe, 720 nM GBX2; 2X binding buffer: 20 mM Tris-HCl pH 7.4, 50 mM KCl, 1 mM DTT, 10% glycerol, 200 ug/mL BSA, 2.2 ug/mL poly dI/dC; 30 min, 25 C; 6% native PAGE, Tris-glycine; conditions: protein: recombinant; tags: V5-6xHis (pET101/D-TOPO); label: 32P end label; blunt
# GBX2ΔHD, sequence (P48031 1-94, stated change not applied): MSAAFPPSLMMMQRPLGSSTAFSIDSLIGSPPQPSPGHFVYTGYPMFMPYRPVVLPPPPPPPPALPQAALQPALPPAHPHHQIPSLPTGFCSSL
binder,measurement,setting,value
PCDH15 100-mer probe (dsDNA) DNA 1: TTACAATTTCATTTGTACAGGTAAGTATATACTTTTCTTTCATTGTTTCTTTTTAATATTCCCATTAGTGGGAATTCAGGCTATCTGTCTCTTACCTATC DNA 2: GATAGGTAAGAGACAGATAGCCTGAATTCCCACTAATGGGAATATTAAAAAGAAACAATGAAAGAAAAGTATATACTTACCTGTACAAATGAAATTGTAA,binding result,[1],binds
same,binding result,[2],no binding
